Data set [1] is described as follows: Thiol-disulfide exchange equilibrium (GSH/GSSG): intramolecular disulfide formation; ddG=-RT ln(Ceff,X/Ceff,Leu), gly-asn turn peptides 1. The conditions noted are these: the molecule shown is the open-chain precursor; 32-membered ring; water, ca. 0.15 M Tris, 1 mM EDTA, pH 8.10, 25 mM total glutathione; 0.375 mM; 20.0 °C; 1.5 h.
Data set [2] can be described thus: Thiol-disulfide exchange equilibrium (GSH/GSSG redox buffer): intramolecular disulfide formation between two Cys of reduced peptide; Ceff=([pep_ox]/[pep_red])x([GSH]^2/[GSSG]), HPLC after acid quench. The conditions noted are these: the molecule shown is the open-chain precursor; 32-membered ring; water, ca. 0.15 M Tris, 1 mM EDTA, pH 8.10, 25 mM total glutathione; 0.375 mM; 20.0 °C; 1.5 h.

For data set [3] the following is noted: cited from earlier work.
The nature of data set [4]: Cysteine effective concentration (Ceff) measurement, thiol-disulfide equilibrium relative to glutathione. Type of data set: physicochemical. The note with it: Table 2, bhpW and CD4 C′-C″ loop peptides, pH 8.10, 20° C. As to the method:
Cysteine Effective Concentration Measurements. Glutathione stock solutions were prepared by mixing 3 volumes of 0.2 M reduced glutathione (GSH) with 1 volume of 0.1 M oxidized glutatione (GSSG). Aliquots were stored at −80° C. and were stable for several months; use of a single batch eliminated any error in ΔΔG values that might arise from variability of total glutathione concentration. Thiol-disulfide equilibria were established by mixing 50 μL peptide stock (approximately 3 mM in water) with 50 μL glutathione stock, deoxygenating the acidic solution with vacuum/argon cycles from a Firestone valve, then adding 300 μL of deoxygenated buffer by syringe (0.2 M tris, pH 8.0; 1 mM EDTA; 67 mM tris base to titrate glutathione), followed by further deoxygenation of the mixture. The final pH of all reaction mixtures was 8.10±0.05. Solutions were stirred under argon and maintained at 20° C. in a water bath. After 1.5 h, successive aliquots (100 μL) were removed with a gastight syringe, immediately quenched by discharge into 400 μL of 3.1 mM HCl, and analyzed by HPLC with a minimum of delay. Ceff values were calculated from the molar ratios of the reduced and oxidized forms of peptide and glutathione (peak area ratios corrected for absorbance differences measured by HPLC), assuming 0.025 M total glutathione monomer (i.e., neglecting the minor amount (<1%) of glutathione present in mixed disulfides with peptide): Ceff=([peptideox]/[peptidered])×([GSH]^2/[GSSG]) [GSH]+2[GSSG]=0.025 M [GSSG]=0.025 M/{2+3.26 (GSH peak area/GSSG peak area)} [peptideox]/[peptidered]=equilibrium peak area ratio/absorbance ratio
Two or three samples from each reaction mixture were analyzed; there were no shifts in populations with time, and calculated Ceff values typically varied by less than 5% (equivalent to 30 cal/mol uncertainty in ΔΔG).

A short description of data set [5]: Circular dichroism spectra of peptides. It counts as physicochemical. The note with it: 10° C.; 20 μM peptide in 20 mM potassium phosphate, pH 7.0. As to the method: Terminal serine and lysine residues were added to improve the solubility of some variants of the CD4 peptide, which are otherwise uncharged. A similar modification was made to bhpW as a control. Non-turn residues that differ between bhpW and the CD4 loop are underlined. Coelution of reduced and oxidized peptides prevented measurement of Ceff for the T2, N3 variant of the CD4 peptide. Circular dichroism spectra were acquired at 10° C. with an Aviv Instruments, Inc. Model 202 spectrophotometer; peptide concentrations were 20 μM in 20 mM potassium phosphate, pH 7.0.
(Circular dichroism is widely used to follow secondary structure.)

Like-named read-outs stand apart in the source and are kept apart here. Positions of bridges follow the written chain, without caps; N, C: chain ends. No end group written: not given here.

With `CC(=O)N[C@@H](CS)C(=O)N[C@H](C(=O)N[C@@H](CC(=O)O)C(=O)N[C@@H](CCC(=O)O)C(=O)NCC(=O)N[C@@H](CC(N)=O)C(=O)N[C@@H](CCCCN)C(=O)N[C@@H](CC(C)C)C(=O)N[C@H](C(=O)N[C@@H](CS)C(N)=O)[C@@H](C)O)[C@@H](C)O` [Ac-CTDEGNKLTC-NH2], in data set [1], the ring closure, dG (kcal/mol relative to X=Leu) was determined as 0.32.
In the case of `CC(=O)N[C@@H](CS)C(=O)N[C@H](C(=O)N[C@@H](Cc1ccccc1)C(=O)N[C@@H](CCC(=O)O)C(=O)NCC(=O)N[C@@H](CC(N)=O)C(=O)N[C@@H](CCCCN)C(=O)N[C@@H](CC(C)C)C(=O)N[C@H](C(=O)N[C@@H](CS)C(N)=O)[C@@H](C)O)[C@@H](C)O` [Ac-CTFEGNKLTC-NH2], the ring closure, Ceff in data set [2] is 88 mM.
The molecule `CC(=O)N[C@@H](CS)C(=O)N[C@H](C(=O)N[C@@H](CCCCN)C(=O)N[C@@H](CCC(=O)O)C(=O)NCC(=O)N[C@@H](CC(N)=O)C(=O)N[C@@H](CCCCN)C(=O)N[C@@H](CC(C)C)C(=O)N[C@H](C(=O)N[C@@H](CS)C(N)=O)[C@@H](C)O)[C@@H](C)O` [Ac-CTKEGNKLTC-NH2] registered a ring closure, Ceff in data set [2] of 52 mM.
The molecule `CC(=O)N[C@@H](CS)C(=O)N[C@H](C(=O)N[C@@H](CC(C)C)C(=O)N[C@@H](CCC(=O)O)C(=O)NCC(=O)N[C@@H](CC(N)=O)C(=O)N[C@@H](CCCCN)C(=O)N[C@@H](CC(C)C)C(=O)N[C@H](C(=O)N[C@@H](CS)C(N)=O)[C@@H](C)O)[C@@H](C)O` [Ac-CTLEGNKLTC-NH2] yielded a ring closure, Ceff in data set [2] of 85 mM. This molecule also yielded a ring closure, dG (kcal/mol relative to X=Leu) in data set [1] of 0.
`CC(=O)N[C@@H](CS)C(=O)N[C@H](C(=O)N[C@@H](CC(N)=O)C(=O)N[C@@H](CCC(=O)O)C(=O)NCC(=O)N[C@@H](CC(N)=O)C(=O)N[C@@H](CCCCN)C(=O)N[C@@H](CC(C)C)C(=O)N[C@H](C(=O)N[C@@H](CS)C(N)=O)[C@@H](C)O)[C@@H](C)O` [Ac-CTNEGNKLTC-NH2]: in data set [2], the ring closure, Ceff was found to be 52 mM.
As for `CC(=O)N[C@@H](CS)C(=O)N[C@H](C(=O)N[C@H](C(=O)N[C@@H](CCC(=O)O)C(=O)NCC(=O)N[C@@H](CC(N)=O)C(=O)N[C@@H](CCCCN)C(=O)N[C@@H](CC(C)C)C(=O)N[C@H](C(=O)N[C@@H](CS)C(N)=O)[C@@H](C)O)[C@@H](C)O)[C@@H](C)O` [Ac-CTTEGNKLTC-NH2], the ring closure, dG (kcal/mol relative to X=Leu) in data set [1] is 0.3.
`CC(=O)N[C@@H](CS)C(=O)N[C@H](C(=O)N[C@H](C(=O)N[C@@H](CCC(=O)O)C(=O)NCC(=O)N[C@@H](CC(N)=O)C(=O)N[C@@H](CCCCN)C(=O)N[C@@H](CC(C)C)C(=O)N[C@H](C(=O)N[C@@H](CS)C(N)=O)[C@@H](C)O)C(C)C)[C@@H](C)O` [Ac-CTVEGNKLTC-NH2]: the ring closure, Ceff in data set [2] worked out at 73 mM. Further, the ring closure, dG (kcal/mol relative to X=Leu) in data set [1] came out at 0.09.
Taken in the same sequence, the figures for `CC(=O)N[C@@H](CS)C(=O)N[C@H](C(=O)N[C@@H](Cc1c[nH]c2ccccc12)C(=O)N[C@@H](CCC(=O)O)C(=O)NCC(=O)N[C@@H](CC(N)=O)C(=O)N[C@@H](CCCCN)C(=O)N[C@@H](CC(C)C)C(=O)N[C@H](C(=O)N[C@@H](CS)C(N)=O)[C@@H](C)O)[C@@H](C)O` [Ac-CTWEGNKLTC-NH2] were 210 mM and -0.53.
For the molecule `CC(=O)N[C@@H](CS)C(=O)N[C@H](C(=O)N[C@@H](Cc1ccc(O)cc1)C(=O)N[C@@H](CCC(=O)O)C(=O)NCC(=O)N[C@@H](CC(N)=O)C(=O)N[C@@H](CCCCN)C(=O)N[C@@H](CC(C)C)C(=O)N[C@H](C(=O)N[C@@H](CS)C(N)=O)[C@@H](C)O)[C@@H](C)O` [Ac-CTYEGNKLTC-NH2], the ring closure, Ceff in data set [2] is 98 mM. In addition, in data set [1], the ring closure, dG (kcal/mol relative to X=Leu) is -0.08.
As to `CC(C)C[C@H](NC(=O)[C@H](Cc1ccccc1)NC(=O)[C@H](CO)NC(=O)CNC(=O)[C@H](CCC(N)=O)NC(=O)[C@H](CC(N)=O)NC(=O)CNC(=O)[C@H](CS)NC(=O)[C@@H](N)CO)C(=O)N[C@H](C(=O)N[C@@H](CS)C(=O)N[C@@H](CCCCN)C(N)=O)[C@@H](C)O` [H-SCGNQGSFLTCK-NH2], the ring closure, Ceff in data set [2] is 45 mM.
For `CC(C)C[C@H](NC(=O)[C@H](Cc1ccccc1)NC(=O)[C@H](CO)NC(=O)CNC(=O)[C@H](CCC(N)=O)NC(=O)[C@H](Cc1c[nH]c2ccccc12)NC(=O)CNC(=O)[C@H](CS)NC(=O)[C@@H](N)CO)C(=O)N[C@H](C(=O)N[C@@H](CS)C(=O)N[C@@H](CCCCN)C(N)=O)[C@@H](C)O` [H-SCGWQGSFLTCK-NH2], the ring closure, Ceff in data set [2] is 48 mM.
Molecule `CC(C)C[C@H](NC(=O)[C@H](CCCCN)NC(=O)[C@H](CC(N)=O)NC(=O)CNC(=O)[C@H](CCC(=O)O)NC(=O)[C@H](Cc1c[nH]c2ccccc12)NC(=O)[C@@H](NC(=O)[C@H](CS)NC(=O)[C@@H](N)CO)[C@@H](C)O)C(=O)N[C@H](C(=O)N[C@@H](CS)C(=O)N[C@@H](CCCCN)C(N)=O)[C@@H](C)O` [H-SCTWEGNKLTCK-NH2] yielded a ring closure, Ceff in data set [2] of 273 mM.
Regarding `CC(C)C[C@H](NC(=O)[C@H](Cc1ccccc1)NC(=O)[C@H](CO)NC(=O)CNC(=O)[C@H](CCC(N)=O)NC(=O)[C@H](Cc1c[nH]c2ccccc12)NC(=O)[C@@H](NC(=O)[C@H](CS)NC(=O)[C@@H](N)CO)[C@@H](C)O)C(=O)N[C@H](C(=O)N[C@@H](CS)C(=O)N[C@@H](CCCCN)C(N)=O)[C@@H](C)O` [H-SCTWQGSFLTCK-NH2], the ring closure, Ceff in data set [2] worked out at 120 mM.
For “GEWTYDDATKTFTVTE (turn peptide) [hairpin peptide derived from the B1 domain of protein G]”, the hairpin population in data set [3] (273 K, from denaturation study) was 80%; in data set [3] (in water, NMR estimate), “about 50%”. Besides, the ΔH of folding in data set [3] (assuming ΔCp=0) is -11.6 kcal/mol. In addition, the ΔS of folding in data set [3] (assuming ΔCp=0) is −39 cal/mol K.
For “IYSNPDGTWT (turn peptide) [variant of tendamistat-based model peptide]”, in data set [3] (in water, NMR estimate), the hairpin population was 30%.
As for IYSNSDGTWT (turn peptide), the hairpin population in data set [3] (in water, NMR estimate) is reported as 30%.
Take KKYTVSINGKKITVSI (turn peptide): the “ΔG of hairpin formation” value in data set [3] (298 K) is on record as 0.08 kcal/mol. The hairpin population in data set [3] (in water, 303 K) was 50%.
As to MQIGVKNPDGTITLEV (turn peptide), the hairpin population result in data set [3] (in water, NMR estimate) is listed as “ca. 80%”.
On to “RGITVNGKTYGR (turn peptide) [designed β-hairpin peptide, type I′ turn flanked by three-residue strands]”, for which the hairpin population result in data set [3] (in water, NMR estimate) is given as “about 30%”.
With “SCGNQGSFLTCK-NH2 (disulfide 2-11 (inferred)) [cd1a]”, the Ceff in data set [4] is given as 45 ± 4 mM. Further, in data set [5], the “[θ]215” value is given as −1,500 deg cm^2 dmol^−1.
On the same counts, the results for “SCGWQGSFLTCK-NH2 (disulfide 2-11 (inferred))” are 48 ± 0 mM and −6,100 deg cm^2 dmol^−1.
For “SCTNQGSFLTCK-NH2 (disulfide 2-11 (inferred)) [T2, N3 variant of the CD4 peptide]”, in data set [5], the “[θ]215” value was −5,000 deg cm^2 dmol^−1.
Molecule “SCTWEGNKLTCK-NH2 (disulfide 2-11 (inferred)) [bhpW with terminal serine and lysine added as a control]” yielded a Ceff in data set [4] of 273 ± 2 mM. For the same molecule, the “[θ]215” value in data set [5] was −17,400 deg cm^2 dmol^−1.
In the case of “SCTWQGSFLTCK-NH2 (disulfide 2-11 (inferred)) [cd2a]”, the Ceff in data set [4] was 120 ± 0 mM. Moreover, the “[θ]215” value in data set [5] is −14,000 deg cm^2 dmol^−1.
With “YITNSDGTWT (turn peptide) [model peptide forming a register-shifted hairpin]”, the hairpin population in data set [3] (in water, NMR estimate) is 80%.

The values above are taken from patent publication US7235626B1, “Structured peptide scaffold for displaying turn libraries on phage” (Genentech, Inc., priority 1999, dated 2007).
